System: steviol glycoside
Assay: steviol glycoside bioconversion by E. coli expressing individual mutations of UGT SEQ ID NO: 13
Assay type: cell-based
Details: fold improvement of % conversion vs parent UGT SEQ ID NO: 13; stevia leaf extract and glucose fed; 37° C., 48 hr
Text: A UGT enzyme referred to as MbUGT1,2 is described in U.S. Pat. No. 10,743,567, which is hereby incorporated by reference. An engineered version of MbUGT1,2 (SEQ ID NO: 13) is described in US 2020/0087692, which is hereby incorporated by reference in its entirety. The UGT enzyme of SEQ ID NO: 13 was further engineered to improve activity for steviol glycoside bioconversion. […] Fold improvement is with respect to % steviol glycoside conversion of the parent UGT enzyme (SEQ ID NO: 13). SEQ ID NO: 14 has the following mutations from SEQ ID NO: 13: G5N, F186T, V397S. Stevia leaf extract and glucose were fed to the bioconversion strains. Bioconversion took place at 37° C. for 48 hr. Data were quantified by reverse phase LC DAD to quantify conversion of steviol glycosides.
Fold improvement (FI) is with respect to % steviol glycoside conversion.

Molecule | FI %Stevioside→rebE | FI %rebA→rebD
V397S: mutation to UGT enzyme of SEQ ID NO: 13 (protein) MATKGSSGMSLAERFWLTLSRSSLVVGRSCVEFEPETVPLLSTLRGKPITFLGLMPPLHEGRREDGEDATVRWLDAQPAKSVVYVALGSEVPLGVEKVHELALGLELAGTRFLWALRKPTGVSDADLLPAGFEERTRGRGVVATRWVPQMSILAHAAVGAFLTHCGWNSTIEGLMFGHPLIMLPIFGDQGPNARLIEAKNAGLQVARNDGDGSFDREGVAAAIRAVAVEEESSKVFQAKAKKLQEIVADMACHERYIDGFIQQLRSYKDDSGYSSSYAAAAGMHVVICPWLAFGHLLPCLDLAQRLASRGHRVSFVSTPRNISRLPPVRPALAPLVAFVALPLPRVEGLPDGAESTNDVPHDRPDMVELHRRAFDGLAAPFSEFLGTACADWVIVDSFHHWAAAAALEHKVPCAMMLLGSAEMIASIADERLEHAETESPAAAGQGRPAAAPTFEVARMKLIR | 3.8 | 3.4
A451T: mutation to UGT enzyme of SEQ ID NO: 13 (protein) MATKGSSGMSLAERFWLTLSRSSLVVGRSCVEFEPETVPLLSTLRGKPITFLGLMPPLHEGRREDGEDATVRWLDAQPAKSVVYVALGSEVPLGVEKVHELALGLELAGTRFLWALRKPTGVSDADLLPAGFEERTRGRGVVATRWVPQMSILAHAAVGAFLTHCGWNSTIEGLMFGHPLIMLPIFGDQGPNARLIEAKNAGLQVARNDGDGSFDREGVAAAIRAVAVEEESSKVFQAKAKKLQEIVADMACHERYIDGFIQQLRSYKDDSGYSSSYAAAAGMHVVICPWLAFGHLLPCLDLAQRLASRGHRVSFVSTPRNISRLPPVRPALAPLVAFVALPLPRVEGLPDGAESTNDVPHDRPDMVELHRRAFDGLAAPFSEFLGTACADWVIVDVFHHWAAAAALEHKVPCAMMLLGSAEMIASIADERLEHAETESPAAAGQGRPAATPTFEVARMKLIR | 1.8 | 2.0
T453K: mutation to UGT enzyme of SEQ ID NO: 13 (protein) MATKGSSGMSLAERFWLTLSRSSLVVGRSCVEFEPETVPLLSTLRGKPITFLGLMPPLHEGRREDGEDATVRWLDAQPAKSVVYVALGSEVPLGVEKVHELALGLELAGTRFLWALRKPTGVSDADLLPAGFEERTRGRGVVATRWVPQMSILAHAAVGAFLTHCGWNSTIEGLMFGHPLIMLPIFGDQGPNARLIEAKNAGLQVARNDGDGSFDREGVAAAIRAVAVEEESSKVFQAKAKKLQEIVADMACHERYIDGFIQQLRSYKDDSGYSSSYAAAAGMHVVICPWLAFGHLLPCLDLAQRLASRGHRVSFVSTPRNISRLPPVRPALAPLVAFVALPLPRVEGLPDGAESTNDVPHDRPDMVELHRRAFDGLAAPFSEFLGTACADWVIVDVFHHWAAAAALEHKVPCAMMLLGSAEMIASIADERLEHAETESPAAAGQGRPAAAPKFEVARMKLIR | 1.4 | 1.6
G5N: mutation to UGT enzyme of SEQ ID NO: 13 (protein) MATKNSSGMSLAERFWLTLSRSSLVVGRSCVEFEPETVPLLSTLRGKPITFLGLMPPLHEGRREDGEDATVRWLDAQPAKSVVYVALGSEVPLGVEKVHELALGLELAGTRFLWALRKPTGVSDADLLPAGFEERTRGRGVVATRWVPQMSILAHAAVGAFLTHCGWNSTIEGLMFGHPLIMLPIFGDQGPNARLIEAKNAGLQVARNDGDGSFDREGVAAAIRAVAVEEESSKVFQAKAKKLQEIVADMACHERYIDGFIQQLRSYKDDSGYSSSYAAAAGMHVVICPWLAFGHLLPCLDLAQRLASRGHRVSFVSTPRNISRLPPVRPALAPLVAFVALPLPRVEGLPDGAESTNDVPHDRPDMVELHRRAFDGLAAPFSEFLGTACADWVIVDVFHHWAAAAALEHKVPCAMMLLGSAEMIASIADERLEHAETESPAAAGQGRPAAAPTFEVARMKLIR | 1.5 | 1.5
A451L: mutation to UGT enzyme of SEQ ID NO: 13 (protein) MATKGSSGMSLAERFWLTLSRSSLVVGRSCVEFEPETVPLLSTLRGKPITFLGLMPPLHEGRREDGEDATVRWLDAQPAKSVVYVALGSEVPLGVEKVHELALGLELAGTRFLWALRKPTGVSDADLLPAGFEERTRGRGVVATRWVPQMSILAHAAVGAFLTHCGWNSTIEGLMFGHPLIMLPIFGDQGPNARLIEAKNAGLQVARNDGDGSFDREGVAAAIRAVAVEEESSKVFQAKAKKLQEIVADMACHERYIDGFIQQLRSYKDDSGYSSSYAAAAGMHVVICPWLAFGHLLPCLDLAQRLASRGHRVSFVSTPRNISRLPPVRPALAPLVAFVALPLPRVEGLPDGAESTNDVPHDRPDMVELHRRAFDGLAAPFSEFLGTACADWVIVDVFHHWAAAAALEHKVPCAMMLLGSAEMIASIADERLEHAETESPAAAGQGRPAALPTFEVARMKLIR | 1.4 | 1.5
T453R: mutation to UGT enzyme of SEQ ID NO: 13 (protein) MATKGSSGMSLAERFWLTLSRSSLVVGRSCVEFEPETVPLLSTLRGKPITFLGLMPPLHEGRREDGEDATVRWLDAQPAKSVVYVALGSEVPLGVEKVHELALGLELAGTRFLWALRKPTGVSDADLLPAGFEERTRGRGVVATRWVPQMSILAHAAVGAFLTHCGWNSTIEGLMFGHPLIMLPIFGDQGPNARLIEAKNAGLQVARNDGDGSFDREGVAAAIRAVAVEEESSKVFQAKAKKLQEIVADMACHERYIDGFIQQLRSYKDDSGYSSSYAAAAGMHVVICPWLAFGHLLPCLDLAQRLASRGHRVSFVSTPRNISRLPPVRPALAPLVAFVALPLPRVEGLPDGAESTNDVPHDRPDMVELHRRAFDGLAAPFSEFLGTACADWVIVDVFHHWAAAAALEHKVPCAMMLLGSAEMIASIADERLEHAETESPAAAGQGRPAAAPRFEVARMKLIR | 1.4 | 1.6
V456M: mutation to UGT enzyme of SEQ ID NO: 13 (protein) MATKGSSGMSLAERFWLTLSRSSLVVGRSCVEFEPETVPLLSTLRGKPITFLGLMPPLHEGRREDGEDATVRWLDAQPAKSVVYVALGSEVPLGVEKVHELALGLELAGTRFLWALRKPTGVSDADLLPAGFEERTRGRGVVATRWVPQMSILAHAAVGAFLTHCGWNSTIEGLMFGHPLIMLPIFGDQGPNARLIEAKNAGLQVARNDGDGSFDREGVAAAIRAVAVEEESSKVFQAKAKKLQEIVADMACHERYIDGFIQQLRSYKDDSGYSSSYAAAAGMHVVICPWLAFGHLLPCLDLAQRLASRGHRVSFVSTPRNISRLPPVRPALAPLVAFVALPLPRVEGLPDGAESTNDVPHDRPDMVELHRRAFDGLAAPFSEFLGTACADWVIVDVFHHWAAAAALEHKVPCAMMLLGSAEMIASIADERLEHAETESPAAAGQGRPAAAPTFEMARMKLIR | 1.5 | 1.5
V397C: mutation to UGT enzyme of SEQ ID NO: 13 (protein) MATKGSSGMSLAERFWLTLSRSSLVVGRSCVEFEPETVPLLSTLRGKPITFLGLMPPLHEGRREDGEDATVRWLDAQPAKSVVYVALGSEVPLGVEKVHELALGLELAGTRFLWALRKPTGVSDADLLPAGFEERTRGRGVVATRWVPQMSILAHAAVGAFLTHCGWNSTIEGLMFGHPLIMLPIFGDQGPNARLIEAKNAGLQVARNDGDGSFDREGVAAAIRAVAVEEESSKVFQAKAKKLQEIVADMACHERYIDGFIQQLRSYKDDSGYSSSYAAAAGMHVVICPWLAFGHLLPCLDLAQRLASRGHRVSFVSTPRNISRLPPVRPALAPLVAFVALPLPRVEGLPDGAESTNDVPHDRPDMVELHRRAFDGLAAPFSEFLGTACADWVIVDCFHHWAAAAALEHKVPCAMMLLGSAEMIASIADERLEHAETESPAAAGQGRPAAAPTFEVARMKLIR | 1.9 | 1.9
V456S: mutation to UGT enzyme of SEQ ID NO: 13 (protein) MATKGSSGMSLAERFWLTLSRSSLVVGRSCVEFEPETVPLLSTLRGKPITFLGLMPPLHEGRREDGEDATVRWLDAQPAKSVVYVALGSEVPLGVEKVHELALGLELAGTRFLWALRKPTGVSDADLLPAGFEERTRGRGVVATRWVPQMSILAHAAVGAFLTHCGWNSTIEGLMFGHPLIMLPIFGDQGPNARLIEAKNAGLQVARNDGDGSFDREGVAAAIRAVAVEEESSKVFQAKAKKLQEIVADMACHERYIDGFIQQLRSYKDDSGYSSSYAAAAGMHVVICPWLAFGHLLPCLDLAQRLASRGHRVSFVSTPRNISRLPPVRPALAPLVAFVALPLPRVEGLPDGAESTNDVPHDRPDMVELHRRAFDGLAAPFSEFLGTACADWVIVDVFHHWAAAAALEHKVPCAMMLLGSAEMIASIADERLEHAETESPAAAGQGRPAAAPTFESARMKLIR | 1.5 | 1.6
V456W: mutation to UGT enzyme of SEQ ID NO: 13 (protein) MATKGSSGMSLAERFWLTLSRSSLVVGRSCVEFEPETVPLLSTLRGKPITFLGLMPPLHEGRREDGEDATVRWLDAQPAKSVVYVALGSEVPLGVEKVHELALGLELAGTRFLWALRKPTGVSDADLLPAGFEERTRGRGVVATRWVPQMSILAHAAVGAFLTHCGWNSTIEGLMFGHPLIMLPIFGDQGPNARLIEAKNAGLQVARNDGDGSFDREGVAAAIRAVAVEEESSKVFQAKAKKLQEIVADMACHERYIDGFIQQLRSYKDDSGYSSSYAAAAGMHVVICPWLAFGHLLPCLDLAQRLASRGHRVSFVSTPRNISRLPPVRPALAPLVAFVALPLPRVEGLPDGAESTNDVPHDRPDMVELHRRAFDGLAAPFSEFLGTACADWVIVDVFHHWAAAAALEHKVPCAMMLLGSAEMIASIADERLEHAETESPAAAGQGRPAAAPTFEWARMKLIR | 1.2 | 1.2

— US20260242839A1, “GLYCOSIDE PRODUCT BIOSYNTHESIS AND RECOVERY” (Manus Bio Inc., priority 2023, published 2026)
